# Patent publication US20250026834A1 (ZOETIS SERVICES, published 2025)
# B1: mAb3 (felinized anti-NGF, ZTS-768) IgG1a WT (antibody, V domains shown)
# VH: DVQLVESGGDLVKPGGSLRLTCVASGFTYSNYWMHWVRQAPGKGLQWVARIDPYGGGTKHNEKFKRRFTISRDNAKNTLYLQMNSLKTEDTATYYCVRSGYDYYFDVWGQGTLVTVSS
# VL: EIQMTQSPSSLSASPGDRVTITCRASENIYSFLAWYQQKPGKVPKLLIYNANTLAEGVPSRFSGSGSGTDFTLTISSLEPEDAATYYCQHHFGTPFTFGSGTKLEIKR
# Molecular target: NGF (target protein of the anti-NGF antibodies mAb2 and mAb3)
# Test: cell-based or functional assay
# NGF (target protein of the anti-NGF antibodies mAb2 and mAb3), sequence (P01138 122-241): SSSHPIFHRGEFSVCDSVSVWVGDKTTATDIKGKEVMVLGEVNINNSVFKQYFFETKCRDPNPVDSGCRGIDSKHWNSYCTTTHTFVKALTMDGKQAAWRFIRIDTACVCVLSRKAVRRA
binder,measurement,value
B1,IC50 (cell based potency assay),36 pM
